This note sets out measurements from US20190142860A1, “NUCLEIC ACID BASED TIA-1 INHIBITORS” (Aquinnah Pharmaceuticals, Inc., priority 2015, published 2019).

Experiment [1] has as its system granules positive for TIA1 and phospho-tau (P-S396/404, PHF1). As to the kind of experiment: Tau kinase inhibitor study: TIA1+ SGs and PHF1+ tau granules. The note with it: HT22 cells, TIA1 and WT tau, 24 hrs; for formation of granules positive for TIA1 and phospho-tau (SGs and tau granules): XXVI 20 μM, CDK2/5 inhibitor 5 μM, SB203580 20 μM, 39621 20 μM, PP2 20 nM. It is filed as cell-based, mouse.

The test system of experiment [2] is tau-induced TIA1+ SGs in HT22 cells. Briefly: PKR / PERK inhibitors on tau-mediated SG formation. It is filed as cell-based, mouse. The note with it: TIA1 ± WT tau, 24 hrs, C16 1 μM, GSK2606414 50 nM. How it is done:
The eukaryotic translation initiation factor eIF2α is regulated by phosphorylation. […] SGs were induced by transfection with TIA1±WT tau. After 24 hrs the cells were treated with inhibitors of PKR (C16, 1 μM, Sigma) or PERK (GSK2606414, 50 nM, EMD/Millipore), and then SG number was quantified after 24 hrs.

The test system of another experiment is tau. Briefly: Tau levels with TIA1 over-expression under proteasome or autophagy inhibition, immunoblot in HT22 cells. Format: cell-based, mouse. The note with it: overnight, MG132 5 μM, chloroquine 50 μM. The method, then:
Immunoblots were preformed using gradient PAGE on a 15-well 4-12% Bis-Tris gel (Invitrogen). Blocking was done in 5% milk for lhr at RT. Primary antibody incubation was at 4° C. overnight with 1:7,500 mouse monoclonal Tau13, 1:500 mouse monoclonal PHF1, 1:500 goat polyclonal TIA1 (Santa Cruz), 1:500 mouse monoclonal synaptophysin (Santa Cruz), 1:1,000 mouse monoclonal PSD-95 (NeuroMab), 1:1,000 rabbit polyclonal caspase-3 or cleaved caspase 3 (Cell Signaling), or 1:10,000 mouse monoclonal actin (Millipore) in PBS. Secondary antibody was incubated in 5% milk for 1 hr at RT. Developing was done using SuperSignal West Pico Substrate (Thermo).
For orientation: A western blot detects proteins with antibodies after separation by electrophoresis.

For experiment [3], the target named is Nucleolysin TIA-1 (endogenous mouse TIA1) (mouse) (UniProt P52912). As to the kind of experiment: TIA1 IP-MS, WT1 cortex.
For experiment [4] the target is unchanged. Briefly: TIA1 IP-MS, WT2 cortex.
Experiment [5] shares this target. Briefly: TIA1 IP-MS, WT3 cortex.
The target is the same in experiment [6]. As to the kind of experiment: TIA1 IP-MS, tau KO 1 cortex.
For experiment [7] the target is unchanged. Briefly: TIA1 IP-MS, tau KO 2 cortex.
The target is the same in experiment [8]. As to the kind of experiment: TIA1 IP-MS, tau KO 3 cortex.

“Also recorded” adds a separate entry of the source. Residues, ends and D or L forms follow the SMILES beside them. *: point of attachment. Cbz = O=C(OCc1ccccc1)*

Chain of UniProt P52912 (P52912 whole entry): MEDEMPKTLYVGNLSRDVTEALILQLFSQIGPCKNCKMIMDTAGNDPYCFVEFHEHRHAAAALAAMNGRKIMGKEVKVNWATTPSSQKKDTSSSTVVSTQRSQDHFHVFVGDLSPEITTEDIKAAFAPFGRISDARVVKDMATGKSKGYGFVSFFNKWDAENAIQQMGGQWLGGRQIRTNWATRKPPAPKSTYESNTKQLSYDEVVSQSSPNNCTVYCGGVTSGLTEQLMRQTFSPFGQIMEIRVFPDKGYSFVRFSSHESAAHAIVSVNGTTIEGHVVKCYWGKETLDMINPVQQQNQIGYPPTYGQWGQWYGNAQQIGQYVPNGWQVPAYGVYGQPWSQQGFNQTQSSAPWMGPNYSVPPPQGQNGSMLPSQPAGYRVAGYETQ

As for `Cn1cc(-c2[nH][nH]c(=O)c2-c2cn(C)c3ccccc23)c2ccccc21` [XXVI], the “formation of granules positive for TIA1 and phospho-tau (SGs and tau granules)” value (“formation of granules positive” below) in [1] is “inhibition of SGs and tau granules”.

alkylbenzyldimethyammonium chloride: the “formation of granules positive” value in [1] is “inhibition of SGs and tau granules”.

On to `O=C1Nc2ccc3ncsc3c2/C1=C/c1cnc[nH]1` [C16], for which the “tau-mediated SG formation (SG number)” value in [2] is recorded as “strongly inhibited; also recorded: Inhibition”.

For `Cn1cc(-c2ccc3c(c2)CCN3C(=O)Cc2cccc(C(F)(F)F)c2)c2c(N)ncnc21` [GSK2606414], the “tau-mediated SG formation (SG number)” value in experiment [2] was “strongly inhibited; also recorded: Inhibition”.

Consider `CC(C)(C)n1nc(-c2ccc(Cl)cc2)c2c(N)ncnc21` [PP2], for which the “formation of granules positive” value in [1] is “inhibition of SGs and tau granules”.

As to `CCN(CC)CCCC(C)Nc1ccnc2cc(Cl)ccc12` (stereo not drawn) [chloroquine], the “decreases in tau associated with TIA1 over-expression” value in the experiment with tau is listed as “neither MG132 nor chloroquine prevented decreases in tau”.

As for `CC(C)C[C@@H](C=O)NC(=O)[C@H](CC(C)C)NC(=O)[C@H](CC(C)C)NC(=O)OCc1ccccc1` [MG132] (Cbz-Leu-Leu-Leu-aldehyde), in the experiment on tau, the “decreases in tau associated with TIA1 over-expression” value is “neither MG132 nor chloroquine prevented decreases in tau”.

`C[S+]([O-])c1ccc(-c2nc(-c3ccncc3)c(-c3ccc(F)cc3)[nH]2)cc1` (stereo not drawn) [SB203580]: in [1], the “SG inhibition, comparison among the kinase inhibitors” value was “strongest SG inhibition”; the “formation of granules positive” value was “Inhibition”.

On to Protein Golgb1, for which the total ion current (normalized to TIA1 = 1000) in experiment [3] was determined as 0; in experiment [4], 0; in experiment [5] it was 259; in experiment [6], 0; in experiment [7], 0; in experiment [8] it was 0.

On to “Phytanoyl-CoA hydroxylase-interacting protein (from UniProt Q8K0S0 1-330)”, for which the total ion current (normalized to TIA1 = 1000) in experiment [3] was found to be 0; in experiment [4] it was 17.1; in [5], 0; in [6], 0; in experiment [7], 54.7; in [8], 0.

“Mitogen-activated protein kinase 1 (from UniProt P63085 2-358)”: the total ion current (normalized to TIA1 = 1000) in experiment [3] was 0; in experiment [4] it was 112; in experiment [5], 0; in [6], 0; in experiment [7], 72.4; in experiment [8], 141.

In the case of “Stress-70 protein, mitochondrial (from UniProt P38647 47-679)”, the total ion current (normalized to TIA1 = 1000) in experiment [3] came out at 0; in experiment [4], 173; in experiment [5] it was 77.5; in [6], 0; in experiment [7], 101; in experiment [8], 0.

“Microtubule-associated protein 6 (from UniProt Q7TSJ2 1-906)”: the total ion current (normalized to TIA1 = 1000) in [3] turned out to be 0; in experiment [4], 116; in [5], 0; in experiment [6], 0; in experiment [7], 36.1; in experiment [8], 0.

Regarding “Poly(rC)-binding protein 1 (from UniProt P60335 1-356)”, the total ion current (normalized to TIA1 = 1000) in [3] was 0; in experiment [4], 19.2; in [5], 30.2; in experiment [6], 0; in [7], 58.5; in experiment [8] it was 0.

Turning to “Clathrin heavy chain 1 (from UniProt Q68FD5 2-1675)”, the total ion current (normalized to TIA1 = 1000) was 0 in experiment [3]; 58.5 in experiment [4]; 0 in [5]; 0 in [6]; 45.2 in experiment [7]; 0 in experiment [8].

Consider “PH and SEC7 domain-containing protein 3 (from UniProt Q2PFD7 1-1037)”, for which the total ion current (normalized to TIA1 = 1000) worked out at 0 in experiment [3]; 555 in experiment [4]; 0 in experiment [5]; 0 in experiment [6]; 133 in [7]; 0 in experiment [8].

On to “Isoform 2 of Cytosol aminopeptidase (from UniProt Q9CPY7 1-488)”, for which the total ion current (normalized to TIA1 = 1000) in [3] came to 0; in experiment [4] it was 80.5; in [5], 0; in [6] it was 0; in [7], 28.4; in experiment [8], 0.

In the case of “Hemoglobin subunit alpha (from UniProt P01942 2-142)”, the total ion current (normalized to TIA1 = 1000) in [3] turned out to be 0; in experiment [4], 69.1; in experiment [5] it was 0; in experiment [6], 0; in experiment [7] it was 0; in experiment [8], 0.

“Heterogeneous nuclear ribonucleoprotein R (from UniProt Q8VHM5 2-632)”: the total ion current (normalized to TIA1 = 1000) came out at 34.6 in experiment [3]; 374 in experiment [4]; 48.5 in experiment [5]; 26.7 in experiment [6]; 69.2 in [7]; 0 in experiment [8].

As to “Ubiquitin thioesterase OTUB1 (from UniProt Q7TQI3 2-271)”, the total ion current (normalized to TIA1 = 1000) in experiment [3] was found to be 0; in experiment [4], 80.5; in experiment [5], 45.6; in [6], 0; in [7], 16.9; in [8], 0.

On to “Guanine deaminase (from UniProt Q9R111 1-454)”, for which the total ion current (normalized to TIA1 = 1000) in experiment [3] is 0; in experiment [4] it was 0; in experiment [5], 68.5; in experiment [6] it was 0; in [7], 75.3; in experiment [8] it was 0.

For the molecule “Glutamate dehydrogenase 1, mitochondrial (from UniProt P26443 54-558)”, the total ion current (normalized to TIA1 = 1000) in [3] worked out at 0; in experiment [4], 402; in [5], 162; in experiment [6], 0; in [7], 365; in experiment [8] it was 0.

As to “Isoform 2 of Sideroflexin-3 (from UniProt Q91V61 1-288)”, the total ion current (normalized to TIA1 = 1000) in experiment [3] came to 0; in [4], 46.1; in experiment [5], 0; in [6], 0; in [7], 43; in experiment [8] it was 0.

“Solute carrier family 2, facilitated glucose transporter member 3 (from UniProt P32037 1-493)”: the total ion current (normalized to TIA1 = 1000) in [3] was 0; in experiment [4], 107; in experiment [5], 190; in [6], 0; in [7] it was 90.2; in experiment [8], 0.
